According to patent US11541133B2, “Treatment of cancer cells overexpressing somatostatin receptors using ocreotide derivatives chelated to radioisotopes” (RADIOMEDIX INC., priority 2017, dated 2023):

Key:
AR42J tumors = test: Combination therapy efficacy study with ADRUCIL in AR42J xenograft athymic nude mice (FIGS. 42-43); assay type: in vivo; conditions: ADRUCIL alone, 15 mg/kg once weekly, nine injections
Method: Athymic nude mice are given AR42J tumors and allowed to grow until tumors reach about 300 mm^3. Mice in treatment groups are injected with 100 μl of 15 mg/kg ADRUCIL® once weekly for a total of nine injections. 10 μCi of ^212Pb-DOTAMTATE is given at either 2 week or 3 week intervals for a total of 3 treatments. The ^212Pb-DOTAMTATE is given within 24 hours after an ADRUCIL® treatment. 10 μCi per 4.1 ng peptide is used, and the cumulative injection dose is 30 μCi. The animals are monitored daily, and calipered and weighed 3 times per week. The animals are sacrificed when termination criteria are met.

[1] = mouse, in vivo
Excerpt: Signs of acute toxicity are examined in a non-GLP repeat dose study to compare single administration vs fractionation (described below). This study is designed based on observations made in athymic nude mice. […] This observation is correlated with the GLP findings that hematological toxicity in the surviving animals from the higher dose groups is recoverable within a month. As renal and hepatic toxicity is cumulative a single dose treatment vs multiple doses leading to the same cumulative dose should be similar (Barendsen, 1964). Fractionated administration of radioactivity three weeks apart compared to a single injection had very similar toxicity profile.

in vivo [2] = test: in vivo; set-up: species or system mice
Method: Female CD-1 mice (˜20 g) are injected with a single dose of ^212Pb-DOTAMTATE. Specifically, 10 μCi of ^212Pb-DOTAMTATE is diluted in PBS and 100 μl is administered to the mice via intravenous injection. The animals are sacrificed at predetermined time points of 15 minutes, 1 hour, 4 hours and 24 hours and 48 hours post drug injection. Tissues are collected from each animal and evaluated for amount of radioactive material in each organ by auto gamma counter. Specifically, organs are harvested, weighed and transferred to polypropylene tubes. The tubes are placed in a calibrated Wizard2 γ-counter (PerkinElmer, Shelton, Conn.) and counted for three minutes (204-274 keV). A standard consisting of one-twentieth of the injection volume is counted with each time point. The background is automatically subtracted from the counts. The standard is also used for decay correction. % ID/g is calculated for each organ collected.

[3] = Non-GLP dose range finding (single dose acute toxicity) study in athymic nude mice (FIGS. 35-36); assay type: in vivo
Method: Female athymic nude mice (˜20 g) are injected with a single dose of 10 μCi, 20 μCi, 40 μCi or 60 μCi of ^212Pb-DOTAMTATE or control PBS intravenously. Five animals are assigned per treatment group. Animals are weighed three times per week and monitored daily for signs of termination criteria (15% weight loss over 2 days, lack of grooming over 5 days, lethargy/weakness over 3 days, reduced motility, hunched back, diarrhea, hypothermia). The study is concluded after 4 weeks.

[4] = Dosimetry and bio-distribution of ^203Pb-DOTAMTATE in patients with somatostatin expressing neuroendocrine tumors (SPECT-CT); assay type: in vivo, human
Method: Total of 6 patients are enrolled in the first-in-human open-label, single-dose, dosimetry and bio-distribution of ^203Pb-DOTAMTATE.
All patients (1 female and 5 male) receive an average dose of 4.94 (4.66-5.26) mCi of ^203Pb-DOTAM-TATE and undergo 1 hour, 4 hour, 24 hour and 48 hour post injection SPECT-CT scans. Ethnicity of all 6 patients is Caucasian.
Pharmacokinetic data from ^203Pb-DOTAMTATE imaging are used to calculate the absorbed dose from ^203Pb-DOTAMTATE imaging. The data is then extrapolated to calculate the expected tissue absorbed doses following the administration of ^212Pb-DOTAMTATE for future Targeted Alpha particle Therapy (TAT).

in vivo [5] = test: in vivo; set-up: species or system mice; conditions: CD-1, mouse, iv, 10 uCi, total radioactivity
Method: CD-1 mice are injected with 10 μCi of ^212Pb-DOTAMTATE as part of a biodistribution study. Blood is collected at 15 minutes; 1 hour and 4 hours post injection. Body weights determined by taking the average of 10 CD-1 mice at 7 weeks old, the age of the mice in this study and using this weight, blood volume is estimated using the equation by Lee and Blaufox (1985). % ID in blood mice is then calculated for 5 mice per group.

[6] = Repeat-dose (fractionated vs single dose) toxicity study in tumor-free CD-1 mice (FIGS. 37-39); assay type: in vivo
Method: Female, tumor free CD-1 mice are injected with one dose of 40 μCi ^212Pb-DOTAMTATE, 2 doses of 20 μCi ^212Pb-DOTAMTATE or three doses of 15 μCi ^212Pb-DOTAMTATE. Animals are given three weeks between doses for these who received multiple treatments. Animals are weighed three times per week and monitored daily for signs of termination criteria (15% weight loss over 2 days or 20% loss from initial weight, lack of grooming over 5 days, lethargy/weakness over 3 days, reduced motility, hunched back, diarrhea, hypothermia). Blood for hematological analysis is collected weekly.

[7] = female, CD-1, mouse, iv, 10 uCi, total radioactivity

Method for AR42J cells: Thirty-thousand (3×10^4) AR42J cells are grown in the wells of a 96 well plate for 2 days. Cells are then incubated for 4 hours with increasing doses of ^212Pb-DOTAMTATE ranging from 0 nCi/ml to 800 nCi/ml. Eight wells per group are treated. Cells are washed with PBS to remove drug and then fresh media is introduced. Cells are allowed to incubate for 6 days at 37° C. Cells are then rinsed and incubated with fluorescein diacetate for 30 minutes and read with a fluorimeter at 485/535 nm. Percentage of viable cells is calculated based on untreated cells as a control.

Compound	median survival (AR42J tumors)	cytotoxic effect (AR42J cells)	toxicity compared with single 40 μCi dose [1]	tissue uptake at 1 h (in vivo [2]; [7])	tissue uptake at 24 h (in vivo [2]; [7])	percent-injected dose per gram, all organs with the exception of the kidneys (in vivo [2]; mouse)	animals surviving until the end of the four-week study ([3]; single dose 10 μCi and 20 μCi groups)	time of death of all animals ([3]; single dose 60 μCi)	cumulative dose corresponding to the maximum theoretical absorbed dose estimate to kidneys of 23 Gy ([4]; human, in vivo)	dose per therapy cycle corresponding to the maximum theoretical absorbed kidney dose of 23 Gy ([4]; patients, dosimetry analysis, 3 cycles)	tissue uptake dose at 1 h (in vivo [5])	tissue uptake dose at 4 h (in vivo [5])	animals that died ([6]; 1×40 μCi, nine days after injection)	animals that died ([6]; 2×20 μCi, within four weeks of the study, one week after the second dose)	mortality ([6]; 3×15 μCi, three weeks between doses)
O=c1[nH]cc(F)c(=O)[nH]1 [ADRUCIL®]	2.4 weeks														
C[C@@H](O)[C@H](NC(=O)[C@@H]1CSSC[C@H](NC(=O)[C@@H](Cc2ccccc2)NC(=O)CN2CCN(CC(N)=O)CCN(CC(N)=O)CCN(CC(N)=O)CC2)C(=O)N[C@@H](Cc2ccc(O)cc2)C(=O)N[C@H](Cc2c[nH]c3ccccc23)C(=O)N[C@@H](CCCCN)C(=O)N[C@@H]([C@@H](C)O)C(=O)N1)C(=O)O [^212Pb-DOTAMTATE, ((4R,7S,10S,13R,16S,19R)-13-((1H-indol-3-yl)methyl)-10-(4-aminobutyl)-16-(4-hydroxybenzyl)-7-((R)-1-hydroxyethyl)-6,9,12,15,18-pentaoxo-19-((R)-3-phenyl-2-(2-(4,7,10-tris(2-amino-2-oxoethyl)-1,4,7,10-tetraazacyclododecan-1-yl)acetamido)propanamido)-1,2-dithia-5,8,11,14,17-pentaazacycloicosane-4-carbonyl)-L-threonine chelated to M, metal not drawn]		complete cell death	same toxicity profile	~30 %ID/g	~10 %ID/g	less than 10%	100%	7 days post injection	32.7 mCi	10.9 mCi	1.8 %ID	0.1 %ID	~40%	50%	no mortality
